The record followed here is the supplement of paper PMC12042874.

± gives the uncertainty stated by the source.

A short description of this data set: amyloid nucleation score (Sup35N fusion, yeast selection) (log enrichment); library NNK1; higher = more nucleation; inactive = no reads after selection. The procedure, abridged:
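The nucleation score equals the log enrichment of output over input reads from DiMSum, centred on the mode score of non-aggregating sequences. It was computed only for sequences with 100 or more input reads. The reads came from Illumina sequencing of plasmid inserts from psi-negative yeast expressing Sup35N fused to peptides of 20 random codons, induced with 100 μM copper sulfate for 24 hours and grown 7 days at 30°C without adenine and uracil.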
Take FNTCMSLFSNCFPNCWMHFK: the amyloid nucleation score worked out at 0.428 ± 0.61.

Turning to VIQEPKFMYLQLFVGLPCVS, the amyloid nucleation score was determined as 4.51 ± 0.09.

Consider MEGRVMGKRVAVY, for which the amyloid nucleation score is -0.155 ± 0.59.

In turn, NYRSGVLELWYGRSMPWS had an amyloid nucleation score of 0.327 ± 0.42.

NYYDSRFGLHIVLELWVARL yielded an amyloid nucleation score of 0.431 ± 0.2.

LSWCLPCLSARSVRSRRMVT: the amyloid nucleation score amounted to 0.161 ± 0.25.

For the substance CSNRWYVNMFVHWIFVHLGS, the amyloid nucleation score was 1.47 ± 0.53.

On to SRYWSLYGGIIVVSRSRTGR, for which the amyloid nucleation score was determined as 0.45 ± 0.32.

SKSRLL came in with an amyloid nucleation score of 0.006 ± 0.4.

NFINVVVWQEGYLRVIHTSV had an amyloid nucleation score of 0.537 ± 1.1.

As to RYISTLYEMNLKYVNVVQFH, the amyloid nucleation score was 6.416 ± 0.045.

TAKRLAT registered an amyloid nucleation score of 0.21 ± 0.8.

As for FTDLFPEDRIWVPDYAGQRR, the amyloid nucleation score was 0.255 ± 1.4.

Take RDPYFRQCTEKQI: the amyloid nucleation score worked out at 1 ± 0.85.

For RKFVC, the amyloid nucleation score was -0.729 ± 1.7.

In turn, CYSVIRREQNLNILV gave an amyloid nucleation score of 1.71 ± 0.53.

For VRNWWDDNYSFTHAYLSTDG, the amyloid nucleation score worked out at 1.01 ± 0.66.

Take VKKGILLSVLDASFRTSVYE: the amyloid nucleation score was -0.424 ± 0.88.

In turn, LHVISGFYKCRTKRL registered an amyloid nucleation score of 0.862 ± 0.32.

As to TMRSNRLFRICFCLGKKYWL, the amyloid nucleation score is -0.562 ± 0.33.

With GMLNIDSVPDTYGLSQPVVP, the amyloid nucleation score is -0.498 ± 0.57.

Regarding LVSQLSFACN, the amyloid nucleation score was determined as 0.92 ± 0.83.

NPPVWPSTFQE: the amyloid nucleation score was -0.159 ± 0.58.

Consider GRSSD, for which the amyloid nucleation score was -0.164 ± 0.84.

As for GMRLGTRSLQHQRWCAMLYL, the amyloid nucleation score was -1.37 ± 1.8.

For LTGASSNTSVLVNWGVASYC, the amyloid nucleation score worked out at 1.13 ± 0.62.

On to GAYLLPLSIWNLGPSNGR, for which the amyloid nucleation score stood at 0.132 ± 0.44.

Regarding WLVQAQALQGWKCFLHKISF, the amyloid nucleation score was -0.186 ± 0.48.

For the substance DNRLMHIIDMWCRSYFSGHT, the amyloid nucleation score was -0.063 ± 1.4.

For GRFFRRLRECNLPHSNIHAY, the amyloid nucleation score was determined as 0.343 ± 0.42.

On to LVVNEFALVNKPDINFCLPQ, for which the amyloid nucleation score was 4.56 ± 0.092.

The substance NYVEVINNFHAFVRVLFEIL displayed an amyloid nucleation score of 4.09 ± 0.15.

FRLVNIIR: the amyloid nucleation score stood at 0.317 ± 0.33.

With SFIELMMASRLF, the amyloid nucleation score was 0.367 ± 0.35.

With VSVFLHAVITDPS, the amyloid nucleation score is 1.9 ± 0.46.

In the case of ESSMLAMVGIQSTWCNVSYG, the amyloid nucleation score was 1.67 ± 0.2.

For RIMMMGQLTFVYMGQHSSMV, the amyloid nucleation score is -0.062 ± 0.57.

On to NGCFIAFLTMFTYFTCTRVS, for which the amyloid nucleation score was -0.76 ± 0.8.

LCMVAQLWYQPV showed an amyloid nucleation score of 2.01 ± 0.16.

As for RPMYHGYHMH, the amyloid nucleation score worked out at 0.483 ± 0.38.

For the substance MVSHKDQRIGPLLASVAHVR, the amyloid nucleation score is -1.69 ± 1.3.

Turning to DRLVGWVVWLHVVFPRMYVL, the amyloid nucleation score was determined as 0.483 ± 0.72.

As to GTFISLLLS, the amyloid nucleation score was -0.077 ± 0.26.

NTYVYNDKGVRNIWKKLVYT: the amyloid nucleation score entry was “inactive”.

Regarding ITVDAMIKSVYFITDSYRHF, the amyloid nucleation score was 0.911 ± 0.26.

TTFFDLT registered an amyloid nucleation score of 0.713 ± 0.74.

On to RRLFMGPI, for which the amyloid nucleation score worked out at 0.802 ± 1.

On to GFWVWSSSRRCLIVRFQVMG, for which the amyloid nucleation score is -0.373 ± 0.56.

With DYALYYGVASNRFFGLFRSP, the amyloid nucleation score was determined as 0.642 ± 0.31.

With LLNCLWDKMWTGLVRCIKNG, the amyloid nucleation score is -0.075 ± 0.35.

Substance SFRCMEYSWGDWVINPPYLS returned an amyloid nucleation score of 0.234 ± 0.62.

As for GMLGDVTVYLACRLLISRFL, the amyloid nucleation score entry was “inactive”.

Take ESSAIRNGEC: the amyloid nucleation score was determined as 0.252 ± 0.52.

For TSCVLFLYTPLTGSFLAGCP, the amyloid nucleation score is -0.46 ± 0.59.

Turning to ELERWLDQKGTLQLEDQTLV, the amyloid nucleation score is -0.724 ± 2.4.

PGWYFDTGSAPLQVSRRSGL yielded an amyloid nucleation score of 0.66 ± 0.63.

On to RIFFYTISYPLILIKVFCYL, for which the amyloid nucleation score entry is “inactive”.

Consider LYSCMRVVATATVSGGLVIE, for which the amyloid nucleation score was -0.843 ± 0.69.

On to RTSSWPTLTHEALLRSGDLC, for which the amyloid nucleation score was -0.637 ± 0.48.

In turn, TLGLVDERHEDWIVLDYTLG had an amyloid nucleation score of 0.422 ± 0.53.

GRCDWTVLDMVDMIGKVESQ returned an amyloid nucleation score of 0.273 ± 0.25.

In turn, ISEMVEWSISPTLGETVTCM showed an amyloid nucleation score of 0.363 ± 0.49.

Take MDLAYMFKLCIGVESM: the amyloid nucleation score result was “inactive”.

SACNYVRRNVAHVRLLSL registered an amyloid nucleation score of 0.564 ± 0.53.

In turn, GLDIFIWYMMVGIVYAFIYV showed an amyloid nucleation score of 2.38 ± 0.53.

For the substance VKGLRSLGSTCRSLKDGITV, the amyloid nucleation score result was “inactive”.

For the substance STKSTQDSSSDFIAVCGKRE, the amyloid nucleation score was determined as 0.925 ± 1.1.

VGRYFTMCFYKSMHRCRRVF returned an amyloid nucleation score of 0.266 ± 0.38.

Regarding LTRAWSGWYVTFMGGEILIR, the amyloid nucleation score was -0.118 ± 0.49.

As to SLFQGERIPFGWNEGQTKDV, the amyloid nucleation score was -0.469 ± 1.2.

The substance IYSNKRTNMLMCMYNSVRGH returned an amyloid nucleation score of 0.243 ± 0.35.

For the substance DGRKG, the amyloid nucleation score amounted to 1.26 ± 0.66.

For the substance QGPVGVSYILHDFIIML, the amyloid nucleation score came to 5.94 ± 0.093.

IWLCVYNGM returned an amyloid nucleation score of 4.98 ± 0.12.

For the substance WLFLTYNVMGLKVGKFAGHT, the amyloid nucleation score was -0.437 ± 0.42.

KDVMYTYFIAISDLGIRNPL registered an amyloid nucleation score of 1.3 ± 0.56.

In the case of QWGRMPMFLIDRTGGWASMG, the amyloid nucleation score is 0.409 ± 0.32.

With AFSYRGGVMRSSFEMLTYVS, the amyloid nucleation score is -0.906 ± 0.61.

In turn, FEERFMFYTNIDNLLYPLSA came in with an amyloid nucleation score of 0.848 ± 0.42.

Regarding HWIMAMFMSPPANTHDEAEI, the amyloid nucleation score was determined as 2.45 ± 0.15.

As to RLHSS, the amyloid nucleation score is -0.036 ± 0.32.

Take IGDGSFYGLRQRQEARGKRA: the amyloid nucleation score was -0.437 ± 0.73.

The substance IGFFPQDSYGFGLRTEINGL displayed an amyloid nucleation score of 0.145 ± 0.69.

Take VKVIVIHAAC: the amyloid nucleation score is -0.256 ± 0.31.

KMIDICPFIHWSQSSTPSRA displayed an amyloid nucleation score of 0.018 ± 0.67.

QGCMATYSGVGDACWGVRVS came in with an amyloid nucleation score of 0.678 ± 0.56.

Regarding FTRSQAV, the amyloid nucleation score entry is “inactive”.

For the substance GFGPDQFITESDSFTSAFVS, the amyloid nucleation score amounted to 0.125 ± 0.55.

On to RSLRVA, for which the amyloid nucleation score was -0.214 ± 1.2.

GGLAGTTLKLRICF: the amyloid nucleation score was -1.03 ± 1.9.

Substance FTESCRRGI returned an amyloid nucleation score of 0.053 ± 0.4.

As to RVSSHGLILHFDKDNSMIAV, the amyloid nucleation score was found to be 0.936 ± 0.61.

The substance SSYAVSTSSPCLSATSARLK displayed an amyloid nucleation score of 0.893 ± 0.98.

Substance LKMFSRPCVMIKNRTGVR showed an amyloid nucleation score of 0.452 ± 0.33.

In turn, FGSDPISCGVWYMCVRGWYG came in with an amyloid nucleation score of 0.108 ± 0.3.

For DRMLHKAI, the amyloid nucleation score was -0.624 ± 1.5.

For the substance MLSTTLALLTERSFGAY, the amyloid nucleation score is 0.021 ± 0.39.

For RERVISVWGL, the amyloid nucleation score was -0.197 ± 0.45.

The substance FKVKIVKCLGMFLLTIASLL showed an amyloid nucleation score of 1.07 ± 0.39.

In the case of YFIDLISWL, the amyloid nucleation score turned out to be 0.198 ± 0.56.

As to AIDRRLYMGYSSWNEQDCEV, the amyloid nucleation score entry is “inactive”.

As for ENYKVGACVYLPWPFHENTG, the amyloid nucleation score is -0.096 ± 0.56.

LGRSENDI showed an amyloid nucleation score of 1.19 ± 0.4.
